For assay [1], the target named is T1, human GUCY2C-rCD4 fusion protein (Homo sapiens (human); Rattus norvegicus, biotinylated (site not given)).
T1 construct: GUCY2C conjugated/fused with CD4; also called Hu-GUCY2C-rCD4; human GUCY2C recombinant antigen
The assay is described as follows: SPR (Sierra SPR-32), scFv on protein G, antigen 800-12.5 nM, 25 C. The method, then:
Furthermore, the affinity to the GUCY2C antigen of the 18 kinds of scFvs produced in Example 1 was measured by SPR (Surface plasmon resonance) analysis.
SPR assay was performed with association time 2 min and dissociation time 10 min under the condition of 25 degrees of Celsius using MASS2 (Sierra SPR-32; Bruker). The data were analyzed with Software R3.

Assay [2] has as its target T1, human GUCY2C-rCD4 fusion protein. The assay is described as follows: ranking ELISA (DELFIA), 50 nM scFv on anti-FLAG, biotinylated antigen, streptavidin-Eu. Here is the method:
(§1) More specifically, after coating an anti-FLAG antibody in a MaxiSorb plate and binding by adding scFvs obtained previously, the remaining scFvs were removed by a washing process. Here, a biotinylated human-GUCY2C-rCD4 protein was incubated and combined, and then the affinity to the antigen was measured by reading signals by DELFIA enhancement with color development through streptavidin-Europlum.
In general terms: In an ELISA, binding on a coated surface is turned into a signal by an enzyme label.

The target is the same in assay [3]. The assay is described as follows: ranking ELISA (DELFIA), 5 nM scFv on anti-FLAG, biotinylated antigen, streptavidin-Eu. The method, then: as §1
Assay [4] has the same target. Put plainly: ELISA (DELFIA), antigen on streptavidin plate, scFv culture solution, Eu-anti-tag Ab. Here is the method: (§2) More specifically, GUCY2C-rCD4 fusion protein, in which the prepared human GUCY2C (SEQ ID NO: 112), monkey GUCY2C (SEQ ID NO: 114), and mouse GUCY2C (SEQ ID NO: 113) were fused, respectively, was bound to a place coated with streptavidin in a Nunc Maxisorp™96 well plate. After removing all the synthetic proteins not combined with washing buffer, the anti-GUCY2C scFV obtained in the culture solution was incubated in each well. After that, the affinity was measured by reading signals DELFIA enhanced using Eu-anti-tag Ab.

Assay [5] concerns the target T2, monkey GUCY2C-rCD4 fusion protein (Macaca fascicularis (crab-eating …, limits assumed)).
T2 construct: Prepared by the same method as the human antigen; also called Cy-GUCY2C-rCD4; monkey GUCY2C recombinant antigen
T2 chain: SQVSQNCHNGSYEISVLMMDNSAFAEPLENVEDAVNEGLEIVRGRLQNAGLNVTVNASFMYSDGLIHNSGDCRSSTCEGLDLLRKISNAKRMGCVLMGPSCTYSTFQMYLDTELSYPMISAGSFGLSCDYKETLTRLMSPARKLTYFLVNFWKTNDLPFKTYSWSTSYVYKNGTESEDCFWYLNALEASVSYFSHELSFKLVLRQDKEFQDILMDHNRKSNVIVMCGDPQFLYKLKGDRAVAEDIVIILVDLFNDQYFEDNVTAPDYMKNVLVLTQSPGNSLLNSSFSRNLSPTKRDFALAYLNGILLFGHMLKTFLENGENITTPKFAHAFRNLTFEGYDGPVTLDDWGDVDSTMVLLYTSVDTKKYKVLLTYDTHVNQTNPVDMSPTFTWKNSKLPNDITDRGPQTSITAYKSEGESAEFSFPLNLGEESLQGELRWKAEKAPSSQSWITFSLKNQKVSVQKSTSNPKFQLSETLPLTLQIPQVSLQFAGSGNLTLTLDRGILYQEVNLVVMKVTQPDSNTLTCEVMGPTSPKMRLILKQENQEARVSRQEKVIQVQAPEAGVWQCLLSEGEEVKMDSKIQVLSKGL
Described as above. Here is the method: as §2

For assay [6], the target named is T3, mouse GUCY2C-rCD4 fusion protein (Mus musculus (house mouse); Rattus …, limits assumed).
T3 construct: Prepared by the same method as the human antigen; also called Mu-GUCY2C-rCD4; murine GUCY2C recombinant antigen
T3 chain: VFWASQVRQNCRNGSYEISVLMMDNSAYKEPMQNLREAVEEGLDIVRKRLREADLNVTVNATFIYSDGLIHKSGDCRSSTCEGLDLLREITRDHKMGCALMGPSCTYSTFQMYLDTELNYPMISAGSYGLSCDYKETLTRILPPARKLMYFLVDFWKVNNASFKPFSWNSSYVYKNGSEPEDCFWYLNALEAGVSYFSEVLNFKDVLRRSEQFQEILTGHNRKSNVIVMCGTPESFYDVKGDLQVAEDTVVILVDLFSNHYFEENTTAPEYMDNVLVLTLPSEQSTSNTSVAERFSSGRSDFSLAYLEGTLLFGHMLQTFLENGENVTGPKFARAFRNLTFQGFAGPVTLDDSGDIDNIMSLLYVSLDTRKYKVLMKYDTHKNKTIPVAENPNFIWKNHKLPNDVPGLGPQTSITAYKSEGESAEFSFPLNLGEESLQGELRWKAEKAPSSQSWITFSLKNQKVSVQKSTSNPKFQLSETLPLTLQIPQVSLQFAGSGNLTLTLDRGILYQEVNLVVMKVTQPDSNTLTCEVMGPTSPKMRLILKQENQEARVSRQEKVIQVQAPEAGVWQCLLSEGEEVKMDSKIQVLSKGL
The assay is described as above. The method, then:
as §2

B1: scFv A07 (scFv)
scFv: QVQLQESGPGLVKPSETLSLTCTVSGGSISSYYWSWIRQPPGKGLEWIGSIYYSGSTNYNPSLKSRVTISRDKSKNQLFLKLNSMTAADTAVYYCARDVWGSGQSFDSWGQGTLVTVSSGGGGSGGGGSGGGASNFMLTQPHSVSESPGKTVTISCTRSSGSIASNYVQWYQQRLGSSPTTVIYEHSRRPSGVPDRFSASIDSSSNSASLTISGLKTEDEADYYCQSYDVSNRVFGGGTKLTVL
notes: also called 2427_01_C02
B1 came in with a Kd in assay [1] of 3.73 µM. For the same molecule, the “Affinity Ranking ELISA (50 nM) signal” value in assay [2] was 27700. The “Affinity Ranking ELISA (5 nM) signal” value in assay [3] was 4740. Also, the entries for the “Binding ELISA signal” value in assay [4], in assay [5] and in assay [6] were 79000, 51100 and 17100, respectively.

For orientation: Kd means the constant that tells how readily two partners part at equilibrium.

The values are drawn from patent US20240115706A1 (LG CHEM, published 2024).
